Experimental findings from publication PMC3657558 are described below.

This assay concerns the target CblC, full-length, His-tagged (UniProt Q9Y4U1). Description: native gel or EMSA.
Chain of UniProt Q9Y4U1 (Q9Y4U1 whole entry): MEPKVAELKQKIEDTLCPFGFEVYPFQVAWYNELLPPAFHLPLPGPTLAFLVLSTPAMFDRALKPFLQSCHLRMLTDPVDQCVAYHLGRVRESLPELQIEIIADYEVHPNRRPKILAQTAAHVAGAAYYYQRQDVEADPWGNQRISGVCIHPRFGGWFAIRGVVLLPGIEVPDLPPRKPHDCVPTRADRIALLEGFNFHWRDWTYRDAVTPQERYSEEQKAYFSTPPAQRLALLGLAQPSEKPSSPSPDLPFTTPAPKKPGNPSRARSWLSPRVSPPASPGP

As a reminder, the stoichiometry N is a count of units in the complex or per binding partner. Turning to “full-length CblD, N-terminal 6xHis-tagged (from UniProt Q9H3L0 39-296) (natural protein)”, the stoichiometry N was 1 CblC:CblD.
